Experimental data from patent US20230279406A1.

How the values were obtained:
Assay in all cases: cell-based or functional assay
[1] = target: T1, CD376 PV1-RfxCas13d-566C-NLS-BGHpA
T1 sequence: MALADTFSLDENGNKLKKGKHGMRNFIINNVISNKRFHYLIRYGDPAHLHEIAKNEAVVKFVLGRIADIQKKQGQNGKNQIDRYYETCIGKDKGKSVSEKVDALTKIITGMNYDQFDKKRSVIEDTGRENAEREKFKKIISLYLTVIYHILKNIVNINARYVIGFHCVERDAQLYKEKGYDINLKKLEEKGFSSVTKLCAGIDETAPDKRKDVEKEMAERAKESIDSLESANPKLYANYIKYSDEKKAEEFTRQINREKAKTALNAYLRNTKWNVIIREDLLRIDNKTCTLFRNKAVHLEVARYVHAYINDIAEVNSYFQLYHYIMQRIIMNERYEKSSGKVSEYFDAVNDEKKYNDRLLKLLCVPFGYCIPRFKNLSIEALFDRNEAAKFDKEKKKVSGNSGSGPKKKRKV

[2] = target: T2, CD380 PV1-RfxCas13d-656C-NLS-BGHpA
T2 sequence: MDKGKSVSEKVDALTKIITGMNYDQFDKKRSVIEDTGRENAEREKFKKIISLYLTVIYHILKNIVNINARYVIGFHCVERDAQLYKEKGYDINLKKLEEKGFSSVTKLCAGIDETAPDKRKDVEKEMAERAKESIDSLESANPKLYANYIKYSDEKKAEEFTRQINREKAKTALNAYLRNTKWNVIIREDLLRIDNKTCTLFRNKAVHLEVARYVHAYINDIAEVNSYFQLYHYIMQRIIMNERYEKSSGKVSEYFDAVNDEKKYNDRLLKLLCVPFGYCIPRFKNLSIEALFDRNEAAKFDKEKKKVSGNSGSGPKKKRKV

[3] = target: CD176 PV1-tandem CaffVHH-L1-iCre-271C-NLS-BGHpA
Chain of CD176 PV1-tandem CaffVHH-L1-iCre-271C-NLS-BGHpA (chain, as listed by the source): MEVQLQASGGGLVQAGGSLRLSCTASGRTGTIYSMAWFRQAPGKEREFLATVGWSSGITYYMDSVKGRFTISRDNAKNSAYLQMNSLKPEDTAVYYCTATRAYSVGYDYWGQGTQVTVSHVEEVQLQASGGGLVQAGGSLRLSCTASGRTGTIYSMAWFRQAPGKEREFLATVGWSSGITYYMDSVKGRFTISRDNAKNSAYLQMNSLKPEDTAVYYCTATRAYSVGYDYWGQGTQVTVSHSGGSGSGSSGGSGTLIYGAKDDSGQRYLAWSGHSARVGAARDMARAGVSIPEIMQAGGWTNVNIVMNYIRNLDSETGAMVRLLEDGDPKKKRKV

B1: CD375 PV1-RfxCas13d-N565-NLS-BGHpA (protein)
chain: MIEKKKSFAKGMGVKSTLVSGSKVYMTTFAEGSDARLEKIVEGDSIRSVNEGEAFSAEMADKNAGYKIGNAKFSHPKGYAVVANNPLYTGPVQQDMLGLKETLEKRYFGESADGNDNICIQVIHNILDIEKILAEYITNAAYAVNNISGLDKDIIGFGKFSTVYTYDEFKDPEHHRAAFNNNDKLINAIKAQYDEFDNFLDNPRLGYFGQAFFSKEGRNYIINYGNECYDILALLSGLRHWVVHNNEEESRISRTWLYNLDKNLDNEYISTLNYLYDRITNELTNSFSKNSAANVNYIAETLGINPAEFAEQYFRFSIMKEQKNLGFNITKLREVMLDRKDMSEIRKNHKVFDSIRTKVYTMMDFVIYRYYIEEDAKVAAANKSLPDNEKSLSEKDIFVINLRGSFNDDQKDALYYDEANRIWRKLENIMHNIKEFRGNKTREYKKKDAPRLPRILPAGRDVSAFSKLMYALTMFLDGKEINDLLTTLINKFDNIQSFLKVMPLIGVNAKFVEEYAFFKDSAKIADELRLIKSFARMGEPIADARRAMYIDAIRILGTNLSYDELKPKKKRKV
gRNA induced mCherry knockdown efficiency, no CID domain [1]: < 80%

B2: CD379 PV1-RfxCas13d-N655-NLS-BGHpA (protein)
chain: MIEKKKSFAKGMGVKSTLVSGSKVYMTTFAEGSDARLEKIVEGDSIRSVNEGEAFSAEMADKNAGYKIGNAKFSHPKGYAVVANNPLYTGPVQQDMLGLKETLEKRYFGESADGNDNICIQVIHNILDIEKILAEYITNAAYAVNNISGLDKDIIGFGKFSTVYTYDEFKDPEHHRAAFNNNDKLINAIKAQYDEFDNFLDNPRLGYFGQAFFSKEGRNYIINYGNECYDILALLSGLRHWVVHNNEEESRISRTWLYNLDKNLDNEYISTLNYLYDRITNELTNSFSKNSAANVNYIAETLGINPAEFAEQYFRFSIMKEQKNLGFNITKLREVMLDRKDMSEIRKNHKVFDSIRTKVYTMMDFVIYRYYIEEDAKVAAANKSLPDNEKSLSEKDIFVINLRGSFNDDQKDALYYDEANRIWRKLENIMHNIKEFRGNKTREYKKKDAPRLPRILPAGRDVSAFSKLMYALTMFLDGKEINDLLTTLINKFDNIQSFLKVMPLIGVNAKFVEEYAFFKDSAKIADELRLIKSFARMGEPIADARRAMYIDAIRILGTNLSYDELKALADTFSLDENGNKLKKGKHGMRNFIINNVISNKRFHYLIRYGDPAHLHEIAKNEAVVKFVLGRIADIQKKQGQNGKNQIDRYYETCIGKPKKKRKV
gRNA induced mCherry knockdown efficiency, no CID domain [2]: < 80%

B3: CD175 PV1-iCre-N270-L1-tandem CaffVHH-NLS-BGHpA (protein)
chain: MSNLLTVHQNLPALPVDATSDEVRKNLMDMFRDRQAFSEHTWKMLLSVCRSWAAWCKLNNRKWFPAEPEDVRDYLLYLQARGLAVKTIQQHLGQLNMLHRRSGLPRPSDSNAVSLVMRRIRKENVDAGERAKQALAFERTDFDQVRSLMENSDRCQDIRNLAFLGIAYNTLLRIAEIARIRVKDISRTDGGRMLIHIGRTKTLVSTAGVEKALSLGVTKLVERWISVSGVADDPNNYLFCRVRKNGVAAPSATSQLSTRALEGIFEATHRSGGSGSGSSGGSGTMEVQLQASGGGLVQAGGSLRLSCTASGRTGTIYSMAWFRQAPGKEREFLATVGWSSGITYYMDSVKGRFTISRDNAKNSAYLQMNSLKPEDTAVYYCTATRAYSVGYDYWGQGTQVTVSHVEEVQLQASGGGLVQAGGSLRLSCTASGRTGTIYSMAWFRQAPGKEREFLATVGWSSGITYYMDSVKGRFTISRDNAKNSAYLQMNSLKPEDTAVYYCTATRAYSVGYDYWGQGTQVTVSHPKKKRKV
recombination upon caffeine induction, tandem against single CaffVHH split Cre 270/271 [3]: < 13 fold
